# Data published in PMC11417369, “DNA sequence and chromatin differentiate sequence-specific transcription factor binding in the human malaria parasite Plasmodium falciparum”.
# T1: PF3D7_0420300 D1 (Plasmodium falciparum, UniProt Q8I1N6 1956-2015)
# T1 sequence: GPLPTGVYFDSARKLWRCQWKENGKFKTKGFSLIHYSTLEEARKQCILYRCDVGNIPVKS
# B1: CACACA_site6664 (dsDNA)
# DNA 1: CATATATTTTGAAACACACACATATAAAATATACAT
# DNA 2: ATGTATATTTTATATGTGTGTGTTTCAAAATATATG
# B2: CACACA_site4699 (dsDNA)
# DNA 1: AAACAGAAGACATATACACACATACAAAAAAGTGCA
# DNA 2: TGCACTTTTTTGTATGTGTGTATATGTCTTCTGTTT
# B3: CACACA_negctrl_site29 (dsDNA)
# DNA 1: TTTTTTTTTTTTTTTTTTTTTTTGCTCAGTGTGGTA
# DNA 2: TACCACACTGAGCAAAAAAAAAAAAAAAAAAAAAAA
# B4: CACACA_site1373 (dsDNA)
# DNA 1: TACAAAATATATATGACACACATAAAAAAAAGTATA
# DNA 2: TATACTTTTTTTTATGTGTGTCATATATATTTTGTA
# B5: CACACA_site2584 (dsDNA)
# DNA 1: ATTGCTTTTCTTTTTGCACACTTATGCATATATATA
# DNA 2: TATATATATGCATAAGTGTGCAAAAAGAAAAGCAAT
# B6: CACACA_site2783 (dsDNA)
# DNA 1: TATGAAAGAAATAGTACACACATAAACATTTGTAAA
# DNA 2: TTTACAAATGTTTATGTGTGTACTATTTCTTTCATA
# B7: CACACA_negctrl_site412 (dsDNA)
# DNA 1: ATAAAAAGGTTTAAAAAAAAAAAAAAAAAAAAAAAA
# DNA 2: TTTTTTTTTTTTTTTTTTTTTTTTAAACCTTTTTAT
# B8: CACACA_site5336 (dsDNA)
# DNA 1: TATAATAATAAAAACACACACGTTGATTGTATTAGC
# DNA 2: GCTAATACAATCAACGTGTGTGTTTTTATTATTATA
# B9: CACACA_site6811 (dsDNA)
# DNA 1: CATATAAAGATATGAACACACAAAAAGAATATTTCC
# DNA 2: GGAAATATTCTTTTTGTGTGTTCATATCTTTATATG
# B10: CACACA_negctrl_site1559 (dsDNA)
# DNA 1: ATATTAAAATGAAAATATAAAAAAAAAAAAAAAAAA
# DNA 2: TTTTTTTTTTTTTTTTTTATATTTTCATTTTAATAT
# B11: CACACA_negctrl_site1541 (dsDNA)
# DNA 1: TGCTAATAATTATTTGTTTAGCAACAAAAAAAAAAA
# DNA 2: TTTTTTTTTTTGTTGCTAAACAAATAATTATTAGCA
# B12: CACACA_site76 (dsDNA)
# DNA 1: GGCAGCAATTTAGTTACACACATATATAGGTATACA
# DNA 2: TGTATACCTATATATGTGTGTAACTAAATTGCTGCC
# B13: CACACA_site6737 (dsDNA)
# DNA 1: TAAAAAATAAAATACACACACATATTTATATTTATA
# DNA 2: TATAAATATAAATATGTGTGTGTATTTTATTTTTTA
# B14: CACACA_site4181 (dsDNA)
# DNA 1: GGATATATTTTATGTACACACACATATAAGGGATTA
# DNA 2: TAATCCCTTATATGTGTGTGTACATAAAATATATCC
# B15: CACACA_negctrl_site1638 (dsDNA)
# DNA 1: ACATGTATACTTTTTACGAAAAAAAAAAAAAAAAAA
# DNA 2: TTTTTTTTTTTTTTTTTTCGTAAAAAGTATACATGT
# B16: CACACA_site6075 (dsDNA)
# DNA 1: AATAAATAAGCACATACACACATACATACATACATA
# DNA 2: TATGTATGTATGTATGTGTGTATGTGCTTATTTATT
# B17: CACACA_negctrl_site896 (dsDNA)
# DNA 1: TGATTAAAAGAGGGAAAAAAAAAAAAAAAAAAAAAA
# DNA 2: TTTTTTTTTTTTTTTTTTTTTTCCCTCTTTTAATCA
# B18: CACACA_negctrl_site1508 (dsDNA)
# DNA 1: TTTTACTCTTAAAATAATAAAAAATATTCACATTTA
# DNA 2: TAAATGTGAATATTTTTTATTATTTTAAGAGTAAAA
# B19: CACACA_site632 (dsDNA)
# DNA 1: ATATAATATTAGTGCACACACAAAAATGTACTAAAC
# DNA 2: GTTTAGTACATTTTTGTGTGTGCACTAATATTATAT
# B20: CACACA_site2206 (dsDNA)
# DNA 1: AAAAAAAACACGCGCACACACACACCCACCCACCGA
# DNA 2: TCGGTGGGTGGGTGTGTGTGTGCGCGTGTTTTTTTT
# B21: CACACA_site8696 (dsDNA)
# DNA 1: TGGGAAAAAATATATGCACACCCCCCAAAAAAAAAA
# DNA 2: TTTTTTTTTTGGGGGGTGTGCATATATTTTTTCCCA
# B22: CACACA_site9348 (dsDNA)
# DNA 1: TATATTTTGTTCTTTCCACACACAAATACATATATT
# DNA 2: AATATATGTATTTGTGTGTGGAAAGAACAAAATATA
# B23: CACACA_site9117 (dsDNA)
# DNA 1: AAAAAAAAAAAAAAAACACACATACACCCCCACCCA
# DNA 2: TGGGTGGGGGTGTATGTGTGTTTTTTTTTTTTTTTT
# B24: CACACA_negctrl_site1405 (dsDNA)
# DNA 1: ATGAAAAAAAAAAAAAAAAAAAAAAAAAAAAAAAAA
# DNA 2: TTTTTTTTTTTTTTTTTTTTTTTTTTTTTTTTTCAT
# B25: CACACA_site8811 (dsDNA)
# DNA 1: TTAAAAATATATATAACACACACATAATATATATAT
# DNA 2: ATATATATATTATGTGTGTGTTATATATATTTTTAA
# B26: CACACA_site8720 (dsDNA)
# DNA 1: TATGTATTAAATTTTACACACATGATTCTCTATATG
# DNA 2: CATATAGAGAATCATGTGTGTAAAATTTAATACATA
# B27: CACACA_site4200 (dsDNA)
# DNA 1: TGTCCCCCTTTCTATGCACACTTTAAATTATTCAAA
# DNA 2: TTTGAATAATTTAAAGTGTGCATAGAAAGGGGGACA
# B28: CACACA_site4569 (dsDNA)
# DNA 1: TTGCCCATTTCATTAACACACAAATGTTTATATTCT
# DNA 2: AGAATATAAACATTTGTGTGTTAATGAAATGGGCAA
# B29: CACACA_site8226 (dsDNA)
# DNA 1: TGATAACCTAATAATACACACACATGAATATATATA
# DNA 2: TATATATATTCATGTGTGTGTATTATTAGGTTATCA
# B30: CACACA_negctrl_site146 (dsDNA)
# DNA 1: TTTATAAAAAATTTTTTTTTTTTTTTTTAAATATAT
# DNA 2: ATATATTTAAAAAAAAAAAAAAAAATTTTTTATAAA
# B31: CACACA_negctrl_site1119 (dsDNA)
# DNA 1: ATTTTTTTTTTTTTTTTTTTTTTTTGGAGAAAGAGA
# DNA 2: TCTCTTTCTCCAAAAAAAAAAAAAAAAAAAAAAAAT
# B32: CACACA_site5088 (dsDNA)
# DNA 1: CCAACATAGAGGGGCACACACATATATACCTAAAAA
# DNA 2: TTTTTAGGTATATATGTGTGTGCCCCTCTATGTTGG
# Target: T1, PF3D7_0420300 D1
# Assay: gcPBM; about 25 ug protein; PBS, 1% milk, 0.2 mg/ml BSA, salmon testes DNA, 0.03% Triton X-100
# Settings: tags: N-terminal GST (pGEX-4T-1), kept; label: surface-attached array probe
row,Binder,binding signal
1,B1,"9.81 ln median PBM intensity, better of two orientations"
2,B2,"9.75 ln median PBM intensity, better of two orientations"
3,B3,"8.55 ln median PBM intensity, better of two orientations"
4,B4,"9.69 ln median PBM intensity, better of two orientations"
5,B5,"9.72 ln median PBM intensity, better of two orientations"
6,B6,"9.73 ln median PBM intensity, better of two orientations"
7,B7,"8.38 ln median PBM intensity, better of two orientations"
8,B8,"9.66 ln median PBM intensity, better of two orientations"
9,B9,"9.72 ln median PBM intensity, better of two orientations"
10,B10,"8.43 ln median PBM intensity, better of two orientations"
11,B11,"8.69 ln median PBM intensity, better of two orientations"
12,B12,"9.67 ln median PBM intensity, better of two orientations"
13,B13,"9.78 ln median PBM intensity, better of two orientations"
14,B14,"9.74 ln median PBM intensity, better of two orientations"
15,B15,"8.58 ln median PBM intensity, better of two orientations"
16,B16,"9.71 ln median PBM intensity, better of two orientations"

row,Binder,binding signal
1,B17,"8.33 ln median PBM intensity, better of two orientations"
2,B18,"8.65 ln median PBM intensity, better of two orientations"
3,B19,"9.79 ln median PBM intensity, better of two orientations"
4,B20,"10.7 ln median PBM intensity, better of two orientations"
5,B21,"10.7 ln median PBM intensity, better of two orientations"
6,B22,"9.82 ln median PBM intensity, better of two orientations"
7,B23,"10.7 ln median PBM intensity, better of two orientations"
8,B24,"8.53 ln median PBM intensity, better of two orientations"
9,B25,"9.8 ln median PBM intensity, better of two orientations"
10,B26,"9.65 ln median PBM intensity, better of two orientations"
11,B27,"9.68 ln median PBM intensity, better of two orientations"
12,B28,"9.7 ln median PBM intensity, better of two orientations"
13,B29,"9.76 ln median PBM intensity, better of two orientations"
14,B30,"8.66 ln median PBM intensity, better of two orientations"
15,B31,"8.63 ln median PBM intensity, better of two orientations"
16,B32,"9.64 ln median PBM intensity, better of two orientations"
